Test: yeast display, Sf9 membrane polyspecificity reagent, FACS + sequencing; frameworks hold sequencing errors
How it was run: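 Nanobodies came from a synthetic yeast display library in Saccharomyces cerevisiae BJ5465, induced with galactose for 36–48 hours and stained for 1 hour at 4 °C with 10% biotinylated, detergent-solubilized Sf9 membrane reagent. Cells were enriched on streptavidin microbeads and then FACS-sorted, with low and high (top ~1%) gates set on anti-HA fluorescence for expression and streptavidin fluorescence for reagent binding. Each polyreactivity label reflects the gate a clone came from. Genes were amplified by colony PCR, sequenced by MiSeq 2 × 250 and filtered by CDR length.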

Row | Sequence | polyreactivity (PSR sort gate)
1 | QVQLVESGGGLVQAGGSLRLSCAASGFTLQSNAMGWYRQAPGKERELVAAISFRGGSTYYADSVKGRFTISRDNAKNTVYLQMNSLKPEDTAVYYCAAVQVHLREYDYWGQGSQVTVSS | low polyreactivity
2 | QVQLVESGGGLVQAGGSLRLSCAASGFTLRANAMGWYRQAPGKERELVAAITRTGGRTYYADSVKGRFTISRDNAKNTVYLQMNSLKPEDTAVYYCAADHGPSKWYDYWGQGTEVTVSS | low polyreactivity
3 | QVQLVESGGGLVQAGGSLRLSCAASGFTLRGNAMGWYRPAPGKERELVAAISTGGSTYYADSVKGRFTISRDNAKNTVYLQMNSLKPEDTAVYYCARRGWFHYRYYYWGQGTQATVSS | high polyreactivity
4 | QVQLVESGGGLVQAGGSLRLSCAASGFTLRKYAMGWYRQAPGKEREFVATSSSRAASTYYADSVKGRFTISRDNAQNPVYLQMNSLNQEDTAVYYCNKLSPYRGFYWGQGTQVTVSS | high polyreactivity
5 | QVQLVESGGGLVQAGGSLRLSCAASGFTLSAYAMGWYRQAPGKERELVAGISYTGGRTYYADSVKGRFTISRDNAKNTVYLQMNSLKPEDTAVYYCNKAWSGYYKYGYWGQGTQVNVSS | low polyreactivity
6 | QVQLVESGGGLVQAGGSLRLSCAASGFTLSYYAMGWYRQAPRKERELVASISAIGGITYYADSVKGRFTISRDNAKNTVYLQMNSLKPEDSAVYYCIAGKRFTPYDYWGQGTQVTVSS | high polyreactivity
7 | QVQLVESGGGLVQAGGSLRLSCAASGFTLTPYAMGWYRQAPGKERELVAAITYTGGSTYYADSVKGRFTISRDNAKNTVYLQMNSLKPEDTAVYYCAAEFLSVPYDYCYWGQGTQVTVSS | high polyreactivity
8 | QVQLVESGGGLVQAGGSLRLSCAASGFTLVKYVMGWYRQAPGKERELVAAINRSGTSTYYADSVKGRFTISRDNAKYSVYLQMNSLKPEDTAVYYCNADWYRKRNYWGQGTQVTVSS | high polyreactivity
9 | QVQLVESGGGLVQAGGSLRLSCAASGFTLYAYVMGWYRQAPGKERELVAAISRSGGSTYYADSVKGRFTISRDNAKNTVYLQMNSLKPEDTAVYYCAAQSKYYQYYSWGQGTQVTVSS | high polyreactivity
10 | QVQLVESGGGLVQAGGSLRLSCAASGFTLYRYAMGWYRQAPGKERELVAAISNSGGSTYYADSVKARFTISRDNAKNTVYLQMNSLKPEDTAVYYCAADPGYNVYGYYYWGQGTQVTVSS | high polyreactivity
11 | QVQLVESGGGLVQAGGSLRLSCAASGFTLYWNAMGWYRPAPGTERELVAGITNGGDTYYADSVKGRFTISRDNAKNTVYLQMNSLKPEDTAVYYCNVDPVYYRFHSSLSVIPGYDYWGQGTQVTVSS | low polyreactivity
12 | QVQLVESGGGLVQAGGSLRLSCAASGFTLYYYTMGWYRQAPGKERELVASITGGGTTNYADSVKGRFTISRDNAKNTVYLQMNSLKPEDTAVYYCAKGYGASNDPGYVRKRYGYWGQGTQVTVSS | low polyreactivity
13 | QVQLVESGGGLVQAGGSLRLSCAASGFTNSMGWSTQAHGKERELVAAISYSGDSTNYADSVKGRFTISRDNAKNTVYLQMNSLKPEDTAVYYCNASSPYDYDWGQGTQVTVSS | low polyreactivity
14 | QVQLVESGGGLVQAGGSLRLSCAASGFTSKGYAMGWYRQAPGKERELVATIRSRGGGTYYADSVKGRFTISRDNAKNTVYLQMNSLKPEDTAVYYCAAERKNKYDYWGQGTQVTVSS | high polyreactivity
15 | QVQLVESGGGLVQAGGSLRLSCAASGFTSRKNAMGWYRQAPGKERELVAAITQSSGRTYYADSVKGRFTISRDNAKNTVYLQMNSLKPEDTAVYYCAARRGGEDDYWGQGTQVTVSS | low polyreactivity
16 | QVQLVESGGGLVQAGGSLRLSCAASGFTSRYVMGWYRQAPGKERELVASISRSGGSTYYADSVKGRFTISRDNAKNTVYLQMNSLKPEDTAVYYCAALGLSYSSRYYHWQNEFDYWGQGSQVTVSS | high polyreactivity

Row | Sequence | polyreactivity (PSR sort gate)
17 | QVQLVESGGGLVQAGGSLRLSCAASGFTSSRNAMGWYRQAPGKERELVATISSGGDTYYADSVKGRFPISRDNAKTTVYLQMNSLKPEDTAVYYCNKDPLYAWGYDYWGQGTQVTVSS | low polyreactivity
18 | QVQLVESGGGLVQAGGSLRLSCAASGFTSTLNDMGWYRQAPGKERELVAAISNGGSTYYADSVKGRFTISRDNAKNTVYLQMNSLKPEDTAVYYCAVTATAPQEGDYWGQGTQVTVSS | low polyreactivity
19 | QVQLVESGGGLVQAGGSLRLSCAASGFTVSWYVMGWYRQAPGKERELVAAITWSGGNTYADSVKGRFTISRDNAKNTVYLQMNSLKPEDTAVYYCAADPAHGTKWYVYPSHDDYWGQGTQVTVSS | low polyreactivity
20 | QVQLVESGGGLVQAGGSLRLSCAASGFTYRNYAMGWYRQAPGKERELVAAISRGGGSTYYADSVKGRFTISRDNAKNTVYLQMNSLKPEDTAVYYCAVAYPFYVKTLFSPEADYNYWGQGTQVTVSS | high polyreactivity
21 | QVQLVESGGGLVQAGGSLRLSCAASGFTYRPNAMGWYRQAPGKERELVASIRYSGGSTYYADSVKGRFTISRDNAKNTVYLQMNSLKPEDTAVYYCAAVLYSWMRLGSTYTYDYWGQGTQVTVSS | low polyreactivity
22 | QVQLVESGGGLVQAGGSLRLSCAASGFTYSTNAMGWYRQAPGTERELVAAISGSGGSTYYADSVKGRFTISRDNAKNTVYLQMNSLKPEDTAVYYCAARCPYYSWGRYEYYYWGQGTQVTLSS | high polyreactivity
23 | QVQLVESGGGLVQAGGSLRLSCAASGFYAMGWYIQAPGKERELVAAIRYRGGSTYYADSVKGRFTFSRDNAKNTVDLQMNSLKPEDTAVYYCAASTGPDRQFDSWGQGTQVTVSS | low polyreactivity
24 | QVQLVESGGGLVQAGGSLRLSCAASGGIFADYAMGWYRQAPGKERELVADISARGGSTYNADSVKGRFTISRDNAKNTVYLQMNSLKPEDTAVYYCATDGPGYPPTLRYDYWGQGTQVTVSS | low polyreactivity
25 | QVQLVESGGGLVQAGGSLRLSCAASGGIFAYMGWYRQAPGKERELVASITSSGGSTYYADSVKGRFTISRDNAKNTVYLQMNSLKPEDTAVYYCAADPDFYKSVQYDYWGQGTQVTVSS | low polyreactivity
26 | QVQLVESGGGLVQAGGSLRLSCAASGGIFAYNAMGWYRQAPGKERELVATISYSGGSTYYADSVKGRFTISRDNAKNTVYLQMNSLKPEDTAVYYCATRLYGWRGRYNYWGQGTQVTVSS | high polyreactivity
27 | QVQLVESGGGLVQAGGSLRLSCAASGGIFDGNAMGWYRQAPGKERELVAAISSGGITKYADSEKGRFTISRDNAKNTVYLQMNSLKPEDTAVYYCAASWYRYRFIRYDYWGQGTQVTVSS | high polyreactivity
28 | QVQLVESGGGLVQAGGSLRLSCAASGGIFDINAMGWYRQAPGKERELVAAISWGGGSTYYADSVKGRFTISRDNAKNTVYLQMNSLKPEDTAVYYCAAESVSIQPTPDEDYWGQGTQVTVSS | high polyreactivity
29 | QVQLVESGGGLVQAGGSLRLSCAASGGIFDRYAMGWYRQAPGKERELVAAITGSGGRTYYADSVKGRFTISRDKAKNSVYLQMTSLKPVDPAVYYCARAFGQRRYDYWGHGTQVTVSS | high polyreactivity
30 | QVQLVESGGGLVQAGGSLRLSCAASGGIFDRYAMGWYRQAPGKERELVAGITWSGGRTYYADSVKGRFTISRDNAKNTVYLQMNSLKPEDTAVYYCAASLYTWTYQPVYYRDGYWGQGTQVTVSS | low polyreactivity
31 | QVQLVESGGGLVQAGGSLRLSCAASGGIFEANVMGWYRQAPGKERELVAAITSGGSTNYADSVKGRFTISRDNAKNTVYLQMNSLKPEDTAVYYCAADRPDGWVDYWGQGTQVTVSS | low polyreactivity
32 | QVQLVESGGGLVQAGGSLRLSCAASGGIFFSYAMGWYRQAPGKERELVAAIRTNGGTTYYADSVKGRFTISRDNAKNTVYLQMNSLKPEDTAVYYCAALPGGYYDRGEYDYWGQGTQVSVSS | low polyreactivity

Reference: the nanobody polyreactivity screen of Harvey et al. (2022)
